Results as given in publication PMC4416707.

Assays:
Test in all cases: SEC; size exclusion chromatography of the purified LOV constructs under dark state conditions; apparent MW compared with the expected monomer MW of 17 kDa
[1] = molecular target: McLOVn-TF residues 337-490 (isolated LOV domain of the Methylocystis LOV transcription factor) (Methylocystis Rockwall)
[2] = molecular target: Methylocystis short LOV protein McLOVn (Methylocystis Rockwall)
[3] = molecular target: Methylocystis rosea short LOV protein McLOVr (Methylocystis rosea)

Work on “McLOVn-TF residues 337-490 (isolated LOV domain of the Methylocystis LOV transcription factor) (domain or fragment)” yielded a stoichiometry N [1] of 2.

Substance “Methylocystis short LOV protein McLOVn (natural protein)” has a stoichiometry N [2] of 2.

In the case of “Methylocystis rosea short LOV protein McLOVr (natural protein)”, the stoichiometry N [3] is reported as 2.
